# Source: patent US20140044644A1 (UNIVERSITY OF ZURICH, published 2014)
# Columns and labels:
# [1] = biological target: T1, Aβ42 (synthetic, fibrillar) (UniProt P05067 672-713); assay: ELISA, Aβ42 coated, rat recombinant ankG in solution
# T1 construct: domain: Aβ42; also called fibrillar Aβ42; Aβ42 peptide
# [2] = biological target: T2, Aβ40 (synthetic, fibrillar) (UniProt P05067 672-711); assay: ELISA, Aβ40 coated, rat recombinant ankG in solution
# T2 construct: domain: Aβ40; also called fibrillar Aβ40; Aβ40 peptide
# T2 sequence (P05067 672-711 limits assumed): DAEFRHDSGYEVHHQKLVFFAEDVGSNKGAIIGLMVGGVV
# T1 sequence (P05067 672-713 limits assumed): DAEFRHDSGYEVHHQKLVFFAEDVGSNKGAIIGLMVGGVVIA
binder,measurement,setting,value
"rat recombinant ankG (ankyrin G) (other, UniProt O70511-3 1-1806, looked up, An immunoreactive band of about 190 kDa is reported; also called purified ankG; recombinant ankG protein) MSEEAKEKTAKPAHRKRKGKKSDANASYLRAARAGHLEKALDYIKNGVDVNICNQNGLNALHLASKEGHVEVVSELLQREANVDAATKKGNTALHIASLAGQAEVVKVLVTNGANVNAQSQNGFTPLYMAAQENHLEVVRFLLDNGASQSLATEDGFTPLAVALQQGHDQVVSLLLENDTKGKVRLPALHIAARKDDTKAAALLLQNDTNADIESKSGFTPLHIAAHYGNINVATLLLNRAAAVDFTARNDITPLHVASKRGNANMVKLLLDRGAKIDAKTRDGLTPLHCGARSGHEQVVEMLLDRAAPILSKTKNGLSPLHMATQGDHLNCVQLLLQHNVPVDDVTNDYLTALHVAAHCGHYKVAKVLLDKKANPNAKALNGFTPLHIACKKNRIRVMELLLKHGASIQAVTESGLTPIHVAAFMGHVNIVSQLMHHGASPNTTNVRGETALHMAARSGQAEVVRYLVQDGAQVEAKAKDDQTPLHISARLGKADIVQQLLQQGASPNAATTSGYTPLHLSAREGHEDVAAFLLDHGASLSITTKKGFTPLHVAAKYGKLEVASLLLQKSASPDAAGKSGLTPLHVAAHYDNQKVALLLLDQGASPHAAAKNGYTPLHIAAKKNQMDIATSLLEYGADANAVTRQGIASVHLAAQEGHVDMVSLLLSRNANVNLSNKSGLTPLHLAAQEDRVNVAEVLVNQGAHVDAQTKMGYTPLHVGCHYGNIKIVNFLLQHSAKVNAKTKNGYTPLHQAAQQGHTHIINVLLQNNASPNELTVNGNTALAIARRLGYISVVDTLKVVTEEIMTTTTITEKHKMNVPETMNEVLDMSDDEGEDAITGDTDKYLGPQDLKELGDDSLPAEGYVGFSLGARSASPKISSDRSYTLNRSSYARDSMMIEELLVPSKEQHLPFTREFDSDSLRHYSWAADTLDNVNLVSSPVHSGFLVSFMVDARGGSMRGSRHHGMRIIIPPRKCTAPTRITCRLVKRHKLANPPPMVEGEGLASRLVEMGPAGAQFLGPVIVEIPHFGSMRGKERELIVLRSENGETWKEHQFDSKNEDLSELLNGMDEELDSPEELGTKRICRIITKDFPQYFAVVSRIKQESNQIGPEGGILSSTTVPLVQASFPEGALTKRIRVGLQAQPVPEETVKKILGNKATFSPIVTVEPRRRKFHKPITMTIPVPPPSGEGVSNGYKGDTTPSLRLLCSITGGTSPAQWEDITGTTPLTFIKDCVSFTTNVSARFWLADCHQVLETVGLASQLYRELICVPYMAKFVVFAKTNDPVESSLRCFCMTDDRVDKTLEQQENFEEVARSKDIEVLEGKPIYVDCYGNLAPLTKGGQQLVFNFYSFKENRLPFSIKVRDTSQEPCGRLSFLKEPKTTKGLPQTAVCNLNITLPAHKKAEKADRRQSFTSLALRPQSPCERTDIRMAIVADHLGLSWTELARELNFSVDEINQIRVENPNSLISQSFMLLKKWVTRDGKNATTDALTSVLTKINRIDIVTLLEGPIFDYGNISGTRSFADENNVFHDPVDGWQNETPSGSLESPAQARRITGGLLDRLDDSSDQVRDPITSYLTGEAGKFEANGNHAEVIPEAKAKAYFPESQNDIGKQSIKENLKPKTHGCGRAEEPVSPLTAYQKSLEETSKLVIEDAPKPCVPVGMKKMTRTPADGKARLNLQEEEGSARSEPKQVKSPGEAFTRMTACCYKDLRHSESDSSSEEERRVTTRVIRRRVIIKGEEAKTIPGESVTEEQFTDEEGNLITRKITRKVIRRIGPQERKQDDVQGEGYKVKTKKEIRNVEKKAH",binding result,[1],no binding (tested: ankG 0-2.5 µg/ml)
same,binding result,[2],no binding (tested: ankG 0-2.5 µg/ml)
